Experimental data reported in the supplement of paper PMC9170038.

Tested on: MS2 coat protein
Experiment: apparent KD of MS2 coat protein; designed switch direction (-1 OFF switch, 1 ON switch): -1; higher = weaker reporter binding
Procedure, shortened: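 The buffer was Tris-HCl pH 7.5 with KCl, MgCl2, BSA, DTT, tRNA and Tween-20. In it, SNAP-549-labelled MS2 coat protein was titrated in doubling steps from 0.7 or 1.5 nM to 3 µM over chip-bound RNA switches transcribed by stalled E. coli RNA polymerase on Illumina chips. Apparent KD is the per-design median over clusters of curve fits to normalised fluorescence.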

[1] = Eterna round: R95, input ligand: FMN 200 uM
[2] = Eterna round: R95, input ligand: microRNA oligo, concentration not stated
[3] = Eterna round: R95, input ligand: none
[4] = input ligand: microRNA oligo, concentration not stated

Sequence | apparent KD of MS2 coat protein (input ligand: FMN 200 uM) | apparent KD of MS2 coat protein (input ligand: none) | apparent KD of MS2 coat protein [1] | apparent KD of MS2 coat protein [2] | apparent KD of MS2 coat protein [3] | apparent KD of MS2 coat protein [4]
GAUCACUGAGGAUAUACACAGAUACAAAGUAUCUGAUUGUGACAUGAGGAUCACCCAUGUAGAAGGCAGAGGUC [Omei Ex2 B6] (Eterna round: R97, puzzle: Exclusion 2) | 179 nM | 31.1 nM |  |  |  | 
UCCUCACAUGAGGAUCACCCAUGUCAGGAUAUACAAGAAAAUAACCGGAAAGAACGGAGUAGAAGGGACAUAAG [Xeontiorer] (puzzle: Exclusion 1) |  |  | 27.4 nM | 15.6 nM | 15.5 nM | 
AGCUGUGGCCGAGGAUAUCUACUAAUCCAAACCGAAAUAUAAUCGGACAUGAGGAUCACCCAUGUAGAGAAGGCGGUCUCAGCA [Eli eng2 - 076] (Eterna round: R96, puzzle: Exclusion NG 2) |  |  |  |  |  | 199 nM
AGAUCACGAGGAUAUCCAGUGUAGUACAUGAGGAUCACCCAUGUUGAUCGUGGAUUCUUGGGAGAAGGCGUGGUUG [Eternabot (L2) Solution 100] (Eterna round: R97, puzzle: Exclusion 5) | 237 nM | 60.6 nM |  |  |  | 
AUAAUGUGAGGAUAUAUGCAUCACGGUGAUACACCGUGAUGAUAGAAGGUACAUGAGGAUCACCCAUGUAGGGC [Mod of Anonveat 16 - Jieux - Exclusion 4] (Eterna round: R97, puzzle: Exclusion 4) | 51.2 nM | 37.8 nM |  |  |  | 
GUGGUCCGAGGAUAUAUUAUGUGAUACAUGAGGAUCACCCAUGUUAUAUGAUGGAUGUUAGUAGAAGGCGGACUAC [Mat - Exclusion 5 - JL mod - D82] (puzzle: Exclusion 5) |  |  | 95.2 nM | 86.2 nM | 96.4 nM | 
CUGAGUAGUCAGGAUAUGCUGUACAAAAGUACAGCAGAAGGGAUUACAUGAGGAUCACCCAUGUGAACUUCAUG [)mei Ex6 B21] (Eterna round: R97, puzzle: Exclusion 6) | 681 nM | 652 nM |  |  |  | 
AAUAGUAAUAAGGAUAUCACUAGCUUCGGCUAGUGAGAAGGUAUUACAUGAGGAUCACCCAUGUGGUCAAUUAA [E6/4-A1] (Eterna round: R97, puzzle: Exclusion 6) | 360 nM | 922 nM |  |  |  | 
GGUUAUUGCAAGGAUAUGCUUUUUUUUGAAAUUGCAGAAGGUGCAACAUGAGGAUCACCCAUGUUGGAUGGGUU [JR_E6_Sub018] (Eterna round: R96, puzzle: Exclusion 6) | 252 nM | 194 nM |  |  |  | 161 nM
CCAUAUUCGAAGGAUAUGCAAUUGGAUAGAUUCGCAGAAGGUCGAACAUGAGGAUCACCCAUGUCCCUGGUGAA [Eternabot (L2) Solution 89] (Eterna round: R97, puzzle: Exclusion 6) | 903 nM | 133 nM |  |  |  | 
UCGGGCGCAGGAUAUGCCUUCCGGUACAUGAGGAUCACCCAUGUCGGGCAGUGCUGCGGAGUAGAAGGGCGUUGAG [Eternabot (L2) Solution 74] (Eterna round: R97, puzzle: Exclusion 5) | 15.8 nM | 16.6 nM |  |  |  | 
CGUACUAACACGAAAGUGUUAGUACAAUAAGCUUGUGAAACAUGAGGAUCACCCAUGUCCUCAUAAGCUCGUCUUAU [salish99_TOv2_r3_007] (puzzle: Sensor v3, turn-off variant 2) |  |  | 17.1 nM | 967 nM | 15.7 nM | 
CCUUAUUCACAGGAUAUGCUCAUCUAAUGAUGAGCAGAAGGGUGGACAUGAGGAUCACCCAUGUUUAUCAAUGG [Omei Ex6 D5] (Eterna round: R97, puzzle: Exclusion 6) | 545 nM | 749 nM |  |  |  | 
GAGAUGUGAGGAUAUCUAGACCGCGAAAGAGCCGCGGUCCGAGAGAAGGCACAUGAGGAUCACCCAUGUGAUGA [Tiesri] (puzzle: Exclusion 4) |  |  |  | 39.4 nM |  | 
UUACCUAGUGUUAGGAUAUGCGACGGGUGACCGUUGCAGAAGGAACAUGAGGAUCACCCAUGUUUAAUAAAAUC [JL-BMX4-4.45 ViennaUCT mod] (Eterna round: R97, puzzle: Brourd's mod of Exclusion 4) | 53.1 nM | 12.6 nM |  |  |  | 
GAUUAUGCGAGCUUUAGGGACAUGAGGAUCACCCAUGUUCGUCUUAUUGAUCUAGGUACGCUGACAUACCUAAAUCU [Mod of one of jandersonlee's solutions 2] (puzzle: Sensor v3, turn-off variant 1) |  |  | 22.4 nM | 36.1 nM | 24.4 nM | 
AGUAACUAUCACGAAAGUGAUAGUUACAAACAGGUGAAAACAUGAGGAUCACCCAUGUCCUCAUUUGCUCGUCUUAU [Sensor 3 - 8] (puzzle: Sensor v3, turn-off variant 2) |  |  | 213 nM | 64.5 nM | 240 nM | 
UACAUGAGGAUCACCCAUGUUUUGUCGUGUAUGGUAUUUAUCUAGGAUAUCAAUUUAUUAAUUUAUGAGAAGGAGAAUAUUAAU [JMF's solution 20] (Eterna round: R96, puzzle: Exclusion NG 3) | 34.4 nM | 43.3 nM |  |  |  | 25.8 nM
AGAUCACAUGAGGAUCACCCAUGUGAGGAUAUGAUACUAUGUACUUCGGUACAUAGUAUCAGAAGGCAUGUGAA [Ex1-3: 74] (puzzle: Exclusion 1) |  |  |  | 42.7 nM |  | 
AAAGGAUGCCUAGGAUAUUGACUAAGAAAGGAUUAAGAAGGAGGAAAUAUAUGAGGGAUCCACAUGAGGAUCACCCAUGUACAC [Xesousbege] (Eterna round: R96, puzzle: Exclusion NG 1) | 769 nM | 607 nM |  |  |  | 315 nM
AGUGCGUAUGUGAGGAUAUGCUGGUCCUUGGAUCGGCAGAAGGCACAUGAGGAUCACCCAUGUGGUGUCGUACG [salish99_Bmod_ex4_077] (puzzle: Brourd's mod of Exclusion 4) |  |  | 203 nM | 58.6 nM | 89.2 nM | 
CAUCACUGUGUCAGGAUAUCAUUUGGACGUCUAAGUGAGAAGGGACAUGAGGAUCACCCAUGUGGAGCUGGCCA [Eternabot (L1) Solution 63] (Eterna round: R97, puzzle: Brourd's mod of Exclusion 4) | 73.5 nM | 41.8 nM |  |  |  | 
GUGGGUCCUCACGGUGCUACAUGAGGAUCACCCAUGUGGAUUGAGGAUAUCGUAACCCGACGGGACGAGAAGGCAGUUUACUGU [Ex NG3 #99] (Eterna round: R96, puzzle: Exclusion NG 3) | 66.2 nM | 27.2 nM |  |  |  | 14.8 nM
CCGAAGGCAGGAUAUACAGGACAGACCCAUCAGAGCAGACUACAUGAGGAUCACCCAUGUAGAAGGGCCUUCAA [Eternabot (Original) Solution 26] (Eterna round: R97, puzzle: Exclusion 2) | 154 nM | 18.7 nM |  |  |  | 
CUUUUGUGAGGAUAUUCGUAGUAGGGUCAUGGUACUAUUACGGAGAAGGCACAUGAGGAUCACCCAUGUACCUU [EX4 #44] (Eterna round: R97, puzzle: Exclusion 4) | 25 nM | 15.8 nM |  |  |  | 
GAGUGACAUGAGGAUCACCCAUGUGAGGAUAUCGGACGGACCUAGUUAACAUCCGCCGCGAGAAGGCACAUCGG [Exclusion 1 V23] (puzzle: Exclusion 1) |  |  |  | 136 nM |  | 
